Assay results as given in PMC10153752, “Exo1 protects DNA nicks from ligation to promote crossover formation during meiosis”.

Target: T1, exo1-D173A (Saccharomyces cerevisiae, UniProt P39875 1-702, D173A)
T1 sequence: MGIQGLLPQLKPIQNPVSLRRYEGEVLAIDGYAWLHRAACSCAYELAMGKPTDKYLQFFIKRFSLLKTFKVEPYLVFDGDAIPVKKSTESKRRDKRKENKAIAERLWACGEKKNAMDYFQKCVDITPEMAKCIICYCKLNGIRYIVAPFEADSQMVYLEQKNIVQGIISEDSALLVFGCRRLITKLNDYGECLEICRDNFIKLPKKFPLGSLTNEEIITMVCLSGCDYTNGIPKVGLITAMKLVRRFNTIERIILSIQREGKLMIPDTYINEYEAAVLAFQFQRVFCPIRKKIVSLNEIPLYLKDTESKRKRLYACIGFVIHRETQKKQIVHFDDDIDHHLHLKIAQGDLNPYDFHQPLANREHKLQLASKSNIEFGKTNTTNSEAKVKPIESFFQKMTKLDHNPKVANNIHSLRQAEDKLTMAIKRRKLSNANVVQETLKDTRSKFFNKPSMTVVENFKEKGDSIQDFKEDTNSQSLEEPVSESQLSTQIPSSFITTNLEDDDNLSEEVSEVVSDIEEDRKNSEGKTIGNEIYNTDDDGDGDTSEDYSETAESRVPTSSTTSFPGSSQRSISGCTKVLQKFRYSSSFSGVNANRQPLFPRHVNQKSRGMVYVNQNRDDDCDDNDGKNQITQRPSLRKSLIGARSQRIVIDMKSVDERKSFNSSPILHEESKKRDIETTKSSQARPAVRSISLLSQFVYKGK
Assay: filter binding; no added metal, 0.01 mM EDTA; 15 nM DNA, 35 mM NaCl, 20 mM Tris pH 7.5, 0.04 mg/ml BSA, 0.01 mM EDTA, 0.1 mM DTT, 60 ul, 10 min at 30 C; KOH-treated nitrocellulose filter binding
Conditions: protein: recombinant; tags: FLAG; label: 5'-32P on AO3144 (8% labeled); nicked duplex with 19 nt 5' flap (AO3145 1-19); last 3 nt of AO3145 mismatch the 5' end of AO3144

B1: 19 nt 5' flap substrate (AO3145 + AO3940 annealed to AO3144) (dsDNA)
DNA 1: ACAGCTACCGAATTCTGACTTGCTAGGACATCTTTGCCCACGTTGACCC
DNA 2: TCGATAGTCTCTAGATAGCATGTCCTAGCAAGTCAGAATTCGGTAGCGTG
DNA 3: GGGTCAACGTGGGCAAAG
B1: binds.
